Results reported in paper PMC13169712, “Structural determinants of peanut-induced anaphylaxis” (The Journal of allergy and clinical immunology, 2025).

Tests used:
Details in all cases: both partners purified
recombinant Ara h 2.01 = molecular target: T1, recombinant Ara h 2.01 (Arachis hypogaea, Ara h 2.01, UniProt Q6PSU2;PDB, strain); assay: SPR; Carterra LSA; antibody as ligand, allergen or peptide as analyte; how the antibody was held for these pairs is not told
T1 construct: also called rArah2.01; source: HEK cell-produced, recombinant

recombinant Ara h 2.02 [1] = molecular target: T2, recombinant Ara h 2.02 (Arachis hypogaea, Ara h 2.02, UniProt Q6PSU2, strain); assay: SPR; Carterra LSA; antibodies noncovalently bound to PAGHC30M (Protein A/G) sensor chips; analyte at 0.16, 0.8, 4, 20, 100 and 500 nM in HBS-TE, 0.05% BSA; 5 min association, 15 min dissociation
T2 construct: also called rArah2.02; source: recombinant

[2] = molecular target: T3, rAra h 2 with the DPYSPS-containing loop deleted (Arachis hypogaea, Ara h 2.01 background, UniProt Q6PSU2;PDB, point mutant); assay: as above
T3 construct: also called rAra h 2_loopdel; rArah2_loopdel

recombinant Ara h 6 = molecular target: T4, recombinant Ara h 6 (Arachis hypogaea, UniProt Q647G9); assay: as above
T4 construct: Ara h 6, Arachis hypogaea; May be the same construct as Ara h 6c; also called rAra h 6; rArah6; source: recombinant

recombinant Ara h 2.02 [3] = molecular target: T2, recombinant Ara h 2.02; assay: SPR; Carterra LSA; antibody as ligand, allergen or peptide as analyte; how the antibody was held for these pairs is not told

Kd (recombinant Ara h 2.01) [nM] | koff (recombinant Ara h 2.01) [s⁻¹] | kon (recombinant Ara h 2.01) [M⁻¹ s⁻¹] | Kd (recombinant Ara h 2.02 [1]) [nM] | koff (recombinant Ara h 2.02 [1]) [s⁻¹] | kon (recombinant Ara h 2.02 [1]) [M⁻¹ s⁻¹] | Kd [2] [nM] | koff [2] [s⁻¹] | kon [2] [M⁻¹ s⁻¹] | Kd (recombinant Ara h 6) [nM] | koff (recombinant Ara h 6) [s⁻¹] | kon (recombinant Ara h 6) [M⁻¹ s⁻¹] | Kd (recombinant Ara h 2.02 [3]) [nM] | koff (recombinant Ara h 2.02 [3]) [s⁻¹] | kon (recombinant Ara h 2.02 [3]) [M⁻¹ s⁻¹] | Binder | binding result (recombinant Ara h 6)
0.065 | 5.63e-05 | 872000 | 0.036 | 3.82e-05 | 1.35e+06 | 0.017 | 3.69e-05 | 2.22e+06 | 0.036 | 8.57e-05 | 2.39e+06 |  |  |  | 16A8 human IgE mAb (antibody, V domains shown, variable region as in the heavy chain of m1; human IgE heavy chain constant region; as the light chain of m1; In the SPR some pairs used antibody captured on a Protein A/G chip; also called 16A8 antibody) VH: QVQLVQSGPDVRKPGATVKVSCQTSGYRFTDYEMNWVRQAPGQGLEWIGLINPHSGDTAYAQKFQGRVTMTSDTSDSTVYLELSGLTPDDTAVYYCARSQGTFEVYYFVSWGQGSLVTVSS VL: SYVLTQPPSMSVAPGTTASIPCGANNIAKKRVHWYRQKPGQAPVVVVSDDEDRSSVIPDRFSGSKSGDTATLTISRVEAGDEGDYYCQVWDSKTDHVVFGGGTKVTVL | 
30 | 0.000459 | 15500 |  |  |  |  |  |  |  |  |  | 3.5 | 0.000474 | 165000 | 38B7 human IgE mAb (antibody, V domains shown, variable region as in the heavy chain of m5; human IgE heavy chain constant region; as the light chain of m5; In the SPR some pairs used antibody captured on a Protein A/G chip; also called IgE mAb 38B7; 38B7 IgE) VH: QVQLVESGGGVVQPGRSLRLSCVGSGFTFRRDAKYWVRQAPGKGLEWVAAISHDGGEEDYAESVKGRFTISRDNSRETVYLEMNSLRPEDTAVYYCATTRSGWYFDYWGQGALVTVSS VL: EIVLTQSPATLSLSPGARATLSCRASQSVDTYLAWYQQRRGQSPRLLIYDASKRATGIPARFSGSGSGTDFTLTISSLEPEDFAVYYCQQRNNWRTWTFGQGTKVEIN | no binding (tested: 500 nM (highest analyte concentration))
